Data set [1] deals with T1, SigL (sigma-54) (Clostridium beijerinckii), ORF:07123114.
T1 sequence: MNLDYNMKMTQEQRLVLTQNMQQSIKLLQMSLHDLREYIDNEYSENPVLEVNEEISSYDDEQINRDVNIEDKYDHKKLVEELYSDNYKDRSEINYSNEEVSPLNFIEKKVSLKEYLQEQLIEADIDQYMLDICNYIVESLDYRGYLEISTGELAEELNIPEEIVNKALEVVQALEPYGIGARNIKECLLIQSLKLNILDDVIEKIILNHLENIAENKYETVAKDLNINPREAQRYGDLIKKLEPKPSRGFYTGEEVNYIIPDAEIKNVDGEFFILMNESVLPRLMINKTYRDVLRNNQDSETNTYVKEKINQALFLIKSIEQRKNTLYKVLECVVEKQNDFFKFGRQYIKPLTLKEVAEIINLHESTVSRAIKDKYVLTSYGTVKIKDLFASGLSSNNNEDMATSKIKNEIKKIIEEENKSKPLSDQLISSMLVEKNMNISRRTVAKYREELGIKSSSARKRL
Nature of the data set: EMSA. Particulars: Not stated in the material; EMSA as in Zhang et al., 2014, with Cy5-labelled DNA. In general terms: In EMSA bound probe runs differently from free probe, usually more slowly.

Data set [2] concerns T2, AdhR-DBD (Clostridium beijerinckii), ORF:f910ab61.
T2 sequence: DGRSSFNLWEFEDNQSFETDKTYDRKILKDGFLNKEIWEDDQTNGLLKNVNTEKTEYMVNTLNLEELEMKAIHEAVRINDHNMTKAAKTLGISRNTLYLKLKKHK
Nature of the data set: EMSA. Particulars: Not stated in the material; EMSA as in Zhang et al., 2014, with Cy5-labelled DNA.

This passage reports binding results from PMC7017808.

Regarding “AGCCAGTGGCGATAAGTTTTAACCTCTCCTTGGATATTTTTTTTACTAGCATTCATCTATTACACTATTATATAAAGCAAGTTTTATACCAATATTATATTTATACATAAATAAATATAAATCATCTCATAATCGCACAATTCATGAATCGAAGTGTGCAACTTTAAAAAAATAGTGTGTAATTTAACTTACACACTGCCTTATCGCCACTGGCT (double strand) [adhA2 promoter -24/-12 fragment]”, the binding entry in data set [1] was “binds”.

Regarding “AGCCAGTGGCGATAAGTTAAATAAATAAACTATCATGAATCAAAAATTAACAATGTCTAAACTTAAAAAATGCAAAAAAATATATGTCCTAAAAGCATACAGTGTAATAAAACTGAACATTTTATTTATAAATTGTATTTTTTTAATACAGTAAATTTGCATTAGAAAAACTATATTGTTAATAATTAGATTATAAAATTTCAATAAATGGGGAGACTTATCGCCACTGGCT (double strand) [adhA2 promoter UAS fragment]”, in data set [2], the binding entry is “binds”.

In the case of “AGCCAGTGGCGATAAGAAAGTAAAACACATAATAATTGTTTTTAAAGTGTTTTATTATCCTCAAAAGTGCATAAATGCTACGATTGAACTCATGATCACATTTTTATTTCTGCATCAAAAACTTGGCACGGTTATTGCTTTATATATAAGCATAAGAGAAACAAAACAAAATTATATAAAGTATAAAAACAAAAAGTATTAAAAGGAGAGAGCGAACTTATCGCCACTGGCT (double strand) [adhA1 promoter -24/-12 fragment]”, the binding result in data set [1] is on record as “binds”.

Turning to “AGCCAGTGGCGATAAGAACAAAAAACTCGTAATTCCTCAGAAATATTATATTTAAAGGTTTTAAATTAAGTTATTAAATATATATATAATAAGTTATACATAAATTGATTGTTAAGCATATACTCATTTATATAAATAATTTTTAACAAAGATATGTCCTAAAATAATACAGTATAAATTTAATACAGCGTAATATTTTAGGACATGCTTTATAATCTTATCGCCACTGGCT (double strand) [adhA1 promoter UAS fragment]”, the binding result in data set [2] was “binds”.
